The text below walks through data of PMC2172684.

By Kd is commonly meant a measure of binding affinity in units of concentration.

The target in one assay is importin α (UniProt P52292). Description: ELISA. On the technique in general: ELISA stands for enzyme-linked immunosorbent assay.
Turning to “importin β m-N/m-C (from UniProt Q14974 1-876) (natural protein)”, the equilibrium dissociation constant (Kd) was found to be 2.1 nM.

Regarding “importin β I178A/F217A/Y255A/I263R (m-N) (from UniProt Q14974 1-876) (natural protein)”, the Kd turned out to be 1.1 nM.

The substance “wild-type importin β (from UniProt Q14974 1-876) (natural protein)” gave a Kd of 0.9 nM.

Substance “importin β L612D/F688A (m-C) (from UniProt Q14974 1-876) (natural protein)” showed a Kd of 2.2 nM.

The substance “importin β m-C (304–876) (from UniProt Q14974 304-876) (domain or fragment)” yielded a Kd of 4.3 nM.

For “importin β (304–876) (from UniProt Q14974 304-876) (domain or fragment)”, the Kd was 2.5 nM.

The target in another assay is GST–RanGTP (UniProt P62826). The assay is described as follows: ELISA.
“wild-type importin β (from UniProt Q14974 1-876) (natural protein; other documents disagree on this pair)” showed a Kd of 3.3 nM.

The target in another assay is importin α (UniProt P52292). Description: ELISA. This is another data set of the same source.
The substance “importin β I178D (from UniProt Q14974 1-876) (natural protein)” came in with a dissociation constant (Kd) of 1.2 nM.

“importin β I178A/F217A/Y255A/I263R (m-N) (from UniProt Q14974 1-876) (natural protein)” gave a Kd of 1.2 nM.

For the substance “wild-type importin β (from UniProt Q14974 1-876) (natural protein)”, the Kd was determined as 0.9 nM.

Substance “importin β I263R (from UniProt Q14974 1-876) (natural protein)” came in with a Kd of 0.9 nM.

“importin β E214A (from UniProt Q14974 1-876) (natural protein)”: the Kd was 1.3 nM.

In turn, “importin β I178A (from UniProt Q14974 1-876) (natural protein)” yielded a dissociation constant Kd of 1.1 nM.

Turning to “importin β I178D/Y255A (from UniProt Q14974 1-876) (natural protein)”, the Kd stood at 1.1 nM.
